Data from US12319742 (SHATTUCK LABS, dated 2025).

What was measured:
[1] = target: T1, TNFRSF25 on lymphocytes in human PBMCs (human, UniProt Q93038 25-417); experiment: flow cytometry MFI on NK cells of human PBMCs, no stimulation, APC anti-human Fc
T1 construct: whole, on cells; also called TNFRSF25 on CD4+ and CD8+ T cells and NK cells
T1 sequence (looked up): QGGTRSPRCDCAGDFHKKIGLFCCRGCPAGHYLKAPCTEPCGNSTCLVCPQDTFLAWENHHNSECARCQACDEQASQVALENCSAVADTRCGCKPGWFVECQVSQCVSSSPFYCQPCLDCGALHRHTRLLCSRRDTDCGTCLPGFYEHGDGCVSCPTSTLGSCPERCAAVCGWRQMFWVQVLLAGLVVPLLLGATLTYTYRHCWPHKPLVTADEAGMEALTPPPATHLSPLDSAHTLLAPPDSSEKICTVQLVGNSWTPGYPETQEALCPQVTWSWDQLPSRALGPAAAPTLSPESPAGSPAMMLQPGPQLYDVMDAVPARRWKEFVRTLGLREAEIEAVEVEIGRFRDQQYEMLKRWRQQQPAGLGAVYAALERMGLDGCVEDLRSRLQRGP

GITR = target: T2, GITR; experiment: flow cytometry on engineered mammalian cells overexpressing GITR, APC anti-human Fc
T2 construct: member of group m24; also called GITR overexpressed in engineered mammalian cells
T2 chain: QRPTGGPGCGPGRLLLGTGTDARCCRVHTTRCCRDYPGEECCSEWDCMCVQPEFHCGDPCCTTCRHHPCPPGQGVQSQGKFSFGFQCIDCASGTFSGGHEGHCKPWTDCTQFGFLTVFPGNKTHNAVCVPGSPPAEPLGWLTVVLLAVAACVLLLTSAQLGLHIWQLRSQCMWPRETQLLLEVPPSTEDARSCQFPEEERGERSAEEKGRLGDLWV

LTbR = target: T3, LTbR; experiment: flow cytometry on engineered mammalian cells overexpressing LTbR, APC anti-human Fc
T3 construct: member of group m24; also called LTbR overexpressed in engineered mammalian cells

OX40 = target: T4, OX40; experiment: flow cytometry on engineered mammalian cells overexpressing OX40, APC anti-human Fc
T4 construct: member of group m24; also called OX40 overexpressed in engineered mammalian cells
T4 chain: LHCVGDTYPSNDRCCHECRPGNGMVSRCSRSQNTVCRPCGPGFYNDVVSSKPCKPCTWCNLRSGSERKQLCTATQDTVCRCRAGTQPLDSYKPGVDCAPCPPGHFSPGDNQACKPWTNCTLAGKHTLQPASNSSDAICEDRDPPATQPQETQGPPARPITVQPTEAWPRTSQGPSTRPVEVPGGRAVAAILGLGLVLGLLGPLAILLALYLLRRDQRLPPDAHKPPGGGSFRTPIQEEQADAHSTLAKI

4-1BB = target: T5, 4-1BB; experiment: flow cytometry on engineered mammalian cells overexpressing 4-1BB, APC anti-human Fc
T5 construct: member of group m24; also called 4-1BB overexpressed in engineered mammalian cells

[2] = target: T1, TNFRSF25 on lymphocytes in human PBMCs; experiment: flow cytometry MFI on NK cells of human PBMCs, IL12+IL18 stimulation 24 h, APC anti-human Fc
Description: Human PBMCs were stimulated with either IL12+IL18 or anti-CD3/CD28 for 24 hours to assess binding of anti-TNFRSF25 to lymphocyte subsets.
Figure 9: FIG. 9. […] Figure 10: FIG. 10.

[3] = target: T6, biotinylated recombinant human TNFRSF25-His tagged (Acro #TN5-H52H3) (human, UniProt Q93038 25-199, biotinylated); experiment: SPR (Biacore); biotinylated TNFRSF25-His on streptavidin chip SA; 2 min association, 30 min dissociation; 1:1 binding
T6 construct: treated as the same protein; also called recombinant biotin-conjugated human TNFRSF25 protein; DR3
T6 sequence (looked up): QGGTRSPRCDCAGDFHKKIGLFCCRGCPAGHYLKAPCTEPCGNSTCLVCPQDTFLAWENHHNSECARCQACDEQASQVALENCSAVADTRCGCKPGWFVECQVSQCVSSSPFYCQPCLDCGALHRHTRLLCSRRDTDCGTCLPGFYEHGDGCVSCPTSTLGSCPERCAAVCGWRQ
Description: (FIG. 5A) BLI assay was performed using the Octet Red 96e instrument. Streptavidin biosensors were loaded with biotinylated recombinant human TNFRSF25-His tagged (Acro #TN5-H52H3) as the ligand. […] (FIG. 5B) SPR was performed on a Biacore 8K instrument.

T5 sequence (chain, as listed by the source limits assumed): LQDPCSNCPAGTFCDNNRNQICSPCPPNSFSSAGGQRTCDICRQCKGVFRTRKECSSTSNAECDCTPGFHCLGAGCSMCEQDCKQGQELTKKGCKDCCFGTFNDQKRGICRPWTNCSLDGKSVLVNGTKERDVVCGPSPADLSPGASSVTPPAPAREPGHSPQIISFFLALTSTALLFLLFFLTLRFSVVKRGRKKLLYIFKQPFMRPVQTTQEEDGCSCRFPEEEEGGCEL

B1: SL-061 (antibody, human IgG1, kappa)
heavy: QVQLQQSGPGLVKPSQTLSLTCAISGDSVSGYSAAWNWIRQSPSRGLEWLGRTYYRSKWYNDYAVSVKSRITINPDTSKNQFSLQLNSVTPEDTAVYYCARDYYGSESYYNRGYYYYGMDVWGQGTTVTVSSASTKGPSVFPLAPSSKSTSGGTAALGCLVKDYFPEPVTVSWNSGALTSGVHTFPAVLQSSGLYSLSSVVTVPSSSLGTQTYICNVNHKPSNTKVDKKVEPKSCDKTHTCPPCPAPEAAGAPSVFLFPPKPKDTLMISRTPEVTCVVVDVSHEDPEVKFNWYVDGVEVHNAKTKPREEQYNSTYRVVSVLTVLHQDWLNGKEYKCKVSNKALPAPIEKTISKAKGQPREPQVYTLPPSREEMTKNQVSLTCLVKGFYPSDIAVEWESNGQPENNYKTTPPVLDSDGSFFLYSKLTVDKSRWQQGNVFSCSVMHEALHNHYTQKSLSLSPGK
light: AIQLTQSPSSLSASVGDRVTITCRASPGISSALAWYQQKPGKAPKLLMYDESSQESGVPSRFSGSGSGTDFTLTISSLQPEDFATYYCQQFNDYPLTFGGGTKVEIKRTVAAPSVFIFPPSDEQLKSGTASVVCLLNNFYPREAKVQWKVDNALQSGNSQESVTEQDSKDSTYSLSSTLTLSKADYEKHKVYACEVTHQGLSSPVTKSFNRGEC
notes: Same variable regions as SL-033; IgG1 with L234A/L235A+G237A; also called clone 061; SL-061 (L234A/L235A+G237A)
B1 was tested, and the EC50 [1] was 0.078 nM, the binding result (GITR) was “no binding (tested: about 20 nM)” and the binding result (LTbR) was “no binding (tested: about 20 nM)”. The binding result (OX40) was “no binding (tested: about 20 nM)”, the binding result (4-1BB) was “no binding (tested: about 20 nM)” and the EC50 [2] was 0.065 nM. For the same binder, the koff [3] was 3.89e-06 s⁻¹ and the kon [3] was 2.85e+06 M⁻¹ s⁻¹.
